Data reported in publication PMC12440814.
Substitutions are numbered along the chain they refer to.

Tests used:
CtTrl1-LIG WT [1] = target: T1, CtTrl1-LIG WT (Chaetomium thermophilum, UniProt G0S6G2 1-414); assay: EMSA
T1 sequence: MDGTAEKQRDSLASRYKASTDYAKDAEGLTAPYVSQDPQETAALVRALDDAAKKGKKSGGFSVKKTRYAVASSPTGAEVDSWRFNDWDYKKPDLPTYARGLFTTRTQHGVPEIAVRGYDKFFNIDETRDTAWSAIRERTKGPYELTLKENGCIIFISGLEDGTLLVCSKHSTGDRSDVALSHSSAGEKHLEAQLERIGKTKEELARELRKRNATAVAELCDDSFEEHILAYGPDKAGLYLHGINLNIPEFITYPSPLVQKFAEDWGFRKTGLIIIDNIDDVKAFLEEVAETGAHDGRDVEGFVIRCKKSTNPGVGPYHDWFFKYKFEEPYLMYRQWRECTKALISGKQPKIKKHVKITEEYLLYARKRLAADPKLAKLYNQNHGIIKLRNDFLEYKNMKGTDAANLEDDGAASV

CtTrl1-LIG WT [2] = target: T1, CtTrl1-LIG WT; assay: X-ray crystallography
CtTrl1-LIG WT [3] = target: T1, CtTrl1-LIG WT; assay: EMSA; remark: listed apart in the source
CtTrl1-LIG S171A = target: T2, CtTrl1-LIG S171A (Chaetomium thermophilum, UniProt G0S6G2 1-414, S171A); assay: EMSA
T2 sequence: T1 sequence with S171A

CtTrl1-LIG H170A = target: T3, CtTrl1-LIG H170A (Chaetomium thermophilum, UniProt G0S6G2 1-414, H170A); assay: EMSA
T3 sequence: T1 sequence with H170A

CtTrl1-LIG K148N = target: T4, CtTrl1-LIG K148N (Chaetomium thermophilum, UniProt G0S6G2 1-414, K148N); assay: EMSA
T4 sequence: T1 sequence with K148N

Q: Does CUCUGGAUUUUGCCAGACUGAAG (structured_RNA, 5'-phosphate and terminal phosphate presumed as in ASL-4U) [ASL-4U-5C] bind (CtTrl1-LIG WT [1])?
A: Result: binds

B1: 3'exon-7nt (dsRNA)
RNA 1: AUCUGGA
RNA 2: AUCUGGA
modifications: 5'-phosphate; one strand end 5'-adenylylated (AppRNA) in the crystal
Q: Does B1 bind (CtTrl1-LIG WT [2])?
A: Result: binds

Q: Does AUCUGGAUUUUGCCAGACUGAAG (structured_RNA, 5'-phosphate; terminal phosphate at 3' end nucleotide (2'-P/3'-OH)) [ASL-4U] bind (CtTrl1-LIG WT [3])?
A: Result: binds

Q: Does AUCUGGAUUUUGCCAGACUGAAG (structured_RNA, 5'-phosphate; terminal phosphate at 3' end nucleotide (2'-P/3'-OH)) [ASL-4U] bind (CtTrl1-LIG S171A)?
A: Result: binds

Q: Does AUCUGGAUUUUGCCAGACUGAAG (structured_RNA, 5'-phosphate; terminal phosphate at 3' end nucleotide (2'-P/3'-OH)) [ASL-4U] bind (CtTrl1-LIG H170A)?
A: Result: binds

Q: Does AUCUGGAUUUUGCCAGACUGAAG (structured_RNA, 5'-phosphate; terminal phosphate at 3' end nucleotide (2'-P/3'-OH)) [ASL-4U] bind (CtTrl1-LIG K148N)?
A: Result: binds
